# Columns and labels:
# [1] = target: S. mutans CLC^F F-/H+ antiporter encoded by ORF 1289 (Streptococcus mutans UA159); test: cross-linking; 0.2 mg/mL purified protein in detergent (DM) with 0.125% glutaraldehyde (~500-fold molar excess) at room temperature for the indicated times, quenched with 0.15 M Tris-HCl pH 7.5, SDS-PAGE; monomer and dimer bands
# [2] = target: S. mutans CLC^F homologue encoded by ORF 1290 (Streptococcus mutans UA159); test: as above
Substance,stoichiometry N [1],stoichiometry N [2]
S. mutans CLC^F F-/H+ antiporter encoded by ORF 1289 (natural protein),2,–
S. mutans CLC^F homologue encoded by ORF 1290 (natural protein),–,2

# Reference: PMC11077948
